{"source": "paper PMC3840377", "key": {"[1]": {"molecular_target": "streptavidin (UniProt P22629 25-183)", "sequence (P22629 25-183)": "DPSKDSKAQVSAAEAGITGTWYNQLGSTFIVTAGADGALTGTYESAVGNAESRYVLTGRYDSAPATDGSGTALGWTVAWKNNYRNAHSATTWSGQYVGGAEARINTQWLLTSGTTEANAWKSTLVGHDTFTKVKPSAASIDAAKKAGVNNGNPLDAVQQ", "test": "flow cytometry, SA-488 capture on CEM cells"}, "[2]": {"molecular_target": "T1, alpha-thrombin (UniProt P00734;P00734 328-363;364-622)", "test": "flow cytometry, thrombin capture on CEM cells, T-15-biotin/SA-488 read-out"}, "[3]": {"molecular_target": "T1, alpha-thrombin", "test": "flow cytometry, sandwich on T27-AR-captured thrombin"}}, "data": [{"binder": "TTTTTTTATTGACCGCTGTGTGACGCAACACTCAAT (ssDNA, 5' diacyllipid)", "note": "[SA-AR]", "values": [{"measurement": "binding result", "setting": "[1]", "value": "binds"}]}, {"binder": "TTTTTTTGTCCGTGGTAGGGCAGGTTGGGGTGAC (ssDNA, 5' diacyllipid)", "note": "[T27-AR]", "values": [{"measurement": "binding result", "setting": "[2]", "value": "binds"}]}, {"binder": "GGTTGGTGTGGTTGG (ssDNA)", "note": "[T-15]", "values": [{"measurement": "binding result", "setting": "[3]", "value": "binds"}]}]}
